Results as given in US20080181886A1 (Genentech, published 2008).

Columns and labels:
Murine APRIL [1] = target: T1, Murine APRIL (mouse, UniProt Q9D777 105-241, limits assumed); test: shotgun scan, phage display
T1 sequence (looked up): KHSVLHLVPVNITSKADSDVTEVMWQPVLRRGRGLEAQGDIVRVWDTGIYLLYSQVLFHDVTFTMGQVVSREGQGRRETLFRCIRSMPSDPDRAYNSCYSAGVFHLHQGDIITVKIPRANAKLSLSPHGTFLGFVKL
Excerpt: (§1) Phage from each of the libraries described above were subjected to rounds of binding selection against APRIL, BAFF, or anti-tag antibody (3C8:2F4 Genentech, Inc.) immobilized on 96-well Nunc Maxisorp immunoplates (Sidhu, 2001). BSA-coated wells were used to determine non-specific background binding. Phage eluted from each target were propagated in E. coli XL1-Blue in the presence of M13K07 helper phage; amplified phage were used for selection against the same target in the […] round. […] Enrichment was calculated from the ratio of the phage titer eluted from the target-coated wells to the phage titer eluted from the BSA-coated wells. Individual clones from each library and selection target were then grown in a 96-well format in 400 ul of 2YT medium supplemented with carbenicillin and KO7 helper phage. […] Sequences of acceptable quality were translated and aligned. For APRIL-binding, 71, 40, and 54 sequences were analyzed from libraries one, two and three, respectively. For BAFF-binding, 70, 50, and 53 sequences were analyzed for libraries one, two and three, respectively. For the display selection, a minimum of 47 sequences were analyzed for each library. […] F values describe the effect of mutation on target binding, while accounting for differences in display efficiencies, with values >1 representing deleterious mutations and those <1 representing favorable mutations.

human BAFF [2] = target: T2, human BAFF (human, UniProt Q9Y275 82-285, limits assumed); test: shotgun scan, phage display
T2 sequence (Q9Y275 82-285 limits assumed): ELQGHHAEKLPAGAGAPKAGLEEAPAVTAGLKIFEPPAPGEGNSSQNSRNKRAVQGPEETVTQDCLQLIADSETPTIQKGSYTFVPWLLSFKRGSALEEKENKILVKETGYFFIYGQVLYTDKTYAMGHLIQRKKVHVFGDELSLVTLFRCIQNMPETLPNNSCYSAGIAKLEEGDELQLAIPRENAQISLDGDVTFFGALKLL
Excerpt: as §1

Murine APRIL [3] = target: T1, Murine APRIL; test: NNS library, phage display;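 note: ligand versus display occurrence-to-degeneracy ratio and higher means enriched by binding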
Experimental: (§2) This new phage library was subjected to sorting against either BAFF, APRIL or the display target antibody. After 3 rounds of sorting, approximately 48 clones were picked from each selection and the DNA sequences of the phage clones were determined. […] The normalized F′ value corrects for display bias and is calculated as the percent occurrence to percent degeneracy ratio for ligand selection divided by the percent occurrence to percent degeneracy ratio for display efficiency. Percent occurrence is calculated by dividing the number of times a particular amino acid appeared at a particular position by the total number of amino acids sequenced at that position followed by multiplying by 100. Percent degeneracy is calculated by dividing the degeneracy in code for a particular amino acid divided by the total degeneracy possible at that position followed by multiplying by 100 (e.g., if only A, G and I were selected, total degeneracy possible would be 5).

human BAFF [4] = target: T2, human BAFF; test: NNS library, phage display;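 note: ligand versus display occurrence-to-degeneracy ratio and higher means enriched by binding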
Experimental: as §2

Row | Binder | F (APRIL) (Murine APRIL [1]) | F (BAFF) (human BAFF [2]) | F' APRIL (Murine APRIL [3]) | F' BAFF (human BAFF [4])
1 | SLSCRKEQGKFYAHLLRDCISCASICGQHPKQCAYFCENKLR (receptor, phage library variant, format as m9) [TACI_d2 D80A] | > 43 | > 42 | – | –
2 | SLSCRKEQGKFYDPLLRDCISCASICGQHPKQCAYFCENKLR (receptor, phage library variant, format as m9) [TACI_d2 H81P] | 1.5 | 0.8 | – | –
3 | SLSCRKEQGKFYDHLLRDCTSCASICGQHPKQCAYFCENKLR (receptor, phage library variant, format as m9) [TACI_d2 I87T] | > 19 | > 22 | – | –
4 | SLSCRKEQGKSYDHLLRDCISCASICGQHPKQCAYFCENKLR (receptor, phage library variant, format as m9) [TACI_d2 F78S] | > 66 | – | 0 | 0
5 | SLSCRAEQGKFYDHLLRDCISCASICGQHPKQCAYFCENKLR (receptor, phage library variant, format as m9) [TACI_d2 K73A] | 1.6 | 2 | – | –
6 | SLSCRKEQGKFYDHLLRDCVSCASICGQHPKQCAYFCENKLR (receptor, phage library variant, format as m9) [TACI_d2 I87V] | 1.4 | 1.1 | – | –
7 | SLSCRKEQGKFYDHLLADCISCASICGQHPKQCAYFCENKLR (receptor, phage library variant, format as m9) [TACI_d2 R84A] | 1.1 | – | 2 | 3
8 | SLSCRKEQGKFYDHLLRDCASCASICGQHPKQCAYFCENKLR (receptor, phage library variant, format as m9) [TACI_d2 I87A] | > 27 | > 30 | – | –
9 | SLSCRKEQGKFYDHLLRACISCASICGQHPKQCAYFCENKLR (receptor, phage library variant, format as m9) [TACI_d2 D85A] | 0.5 | 0.8 | – | –
10 | SLSCRKEQGKFYDHLLRDCISCASACGQHPKQCAYFCENKLR (receptor, phage library variant, format as m9) [TACI_d2 I92A] | 11 | – | 0 | 0
11 | SLSCRKAQGKFYDHLLRDCISCASICGQHPKQCAYFCENKLR (receptor, phage library variant, format as m9) [TACI_d2 E74A] | 0.7 | 0.6 | – | –
12 | SLSCRKEQGKFYDHLLRDCISCASICGQHPKQCAYFCENALR (receptor, phage library variant, format as m9) [TACI_d2 K107A] | 0.9 | 1.1 | – | –
13 | SLSCRKEQGKFYDHLLRDCISCASICGQHPTQCAYFCENKLR (receptor, phage library variant, format as m9) [TACI_d2 K98T] | 6.4 | 8.7 | – | –
14 | SLSCRKEQGEFYDHLLRDCISCASICGQHPKQCAYFCENKLR (receptor, phage library variant, format as m9) [TACI_d2 K77E] | 1.4 | 0.9 | – | –
15 | SLSCRKEQGKFYDHLLRDCISCASICGQHPKQCAYVCENKLR (receptor, phage library variant, format as m9) [TACI_d2 F103V] | 0.6 | 0.7 | – | –
16 | SLSCRKEQGTFYDHLLRDCISCASICGQHPKQCAYFCENKLR (receptor, phage library variant, format as m9) [TACI_d2 K77T] | 0.7 | 0.6 | – | –
17 | SLSCRTEQGKFYDHLLRDCISCASICGQHPKQCAYFCENKLR (receptor, phage library variant, format as m9) [TACI_d2 K73T] | 5 | 8.9 | – | –
18 | SLSCRKEQGKFADHLLRDCISCASICGQHPKQCAYFCENKLR (receptor, phage library variant, format as m9) [TACI_d2 Y79A] | > 21 | – | 0 | 0
19 | SLSCRKEQGKFYDHLLRDCISCASICAQHPKQCAYFCENKLR (receptor, phage library variant, format as m9) [TACI_d2 G94A] | 34 | 10 | – | –
